Reference: the DeepSol protein solubility set

assay: soluble on expression in E. coli; label from the status in PepcDB or PDB records

| Sequence | soluble on expression in E. coli |
| --- | --- |
| MGSDKIHHHHHHMNIKQLHYFLVVAEEKQITAAAKRLYIAQPPLSYQLKQLEKELGAQLFKRTAHGIELTDAGQTLQSYASEILSLAQNAKNQVHKTISGELGTVAMGIVSSSTGYMPIAAFKELTQFYPEINFDIYEDNTFGVLDKLEKKTIDMGIVRTPYNRTGLNAKTLTTEKMMAVTNDITLLHKKELRIEDLKDQPLIIYRRFEEMFNQTFAHHGIKPFYAMKCDDSRTAITWAKQNMGLALVPESIATTYAKNKMIAVKHVNWITHLQLVWRKDQIVTPLMKKIISLVK | not soluble |
| GPGSMNNRHSGSEKTPATQKKDSLAPSATNADITKVKICSGHTRPICHINYSNIIDGTFWLVTSCHDAKPMLRNGETGDWVGTFEGHKGAVYCSVFNEDATRLVTGSGDYSSMVWNAVTGDKLHTWSHPKYIKSCDWCGNKIATGCVDGLVRIFDAQAYDANPVCFDSTEKVNQVKATYFIDHTTMVTACENTIMKWDLRDTSLPYLRKEIPGLNFLEYTHSNSIVAAHEKSISFIDTTSLEIKSSFTTSDDIECASLSPNGQNVAAGSKLKAKEFTVDGTELESHRGHHGPIFHIRWAPDGKSFTSGAEDGMARIWPSHDIIETYDNEN | not soluble |
| MAHHHHHHMIICNNNVNHFWKNIKKNIRLDGRTFEDSRNVCINFLKDYGHVEISIGFTKVICKITSEIVKPHDRKLKEGILKINLDIDNFIEDNENSDNMSDECLEIKNIIDRVLKTSNIINFESLCIIPGKKVWCICINIMVIENDGNLTDACYLSAYCGLVHFKNHQVRVIKNGDIIIDKEEINYSPLSILNSPIVTTFAYYEEHDVCLIDPCLHEEEFMSSKISIALNKNGNLISLLKPGGIPLACSHIMESIEIAKKRILTILKILEDTLEEDKNIRSYLTKRNLHVKYSSAPVTIRYDNSFKLKPDISLERYTKNTLIFEDTIKKIEQYIQYNQVQECLNNMNVKLEENDQEEIETCTLKGEGNLNNPNFIDPMRNTNLLNPTDITIIKRQEFVDNHYDANNNKYNTQANKTFKKELIDFSNLLTQNHKKSNNLSNNQKDISEQHDNSQESSDDASTIRSDESSDIDFSVAINQNIKKKK | not soluble |
| MGSDKIHHHHHHMITCQMIHKTYAAGHGERKVLRGLDFAISRGEHVGFLGRNGAGKTTLIKLLGGVEFPTAGTIRRRMTVSWPLGFGGGFQGSLTGYDNARFIARIYGMSYRDIADFVEDFTELGRQLRAPVKTYSQGMRARLAFALSMAIEFDCYLVDEVILVGDHRFHEKCRLELFGKRSDRALILASHNAALIREHCTRAMVLHDGRGTMHDDIDLALRHYEAL | not soluble |
| MSSSLLASLSRLSLLQTRQIHQTIPAGSSVFMKRQKKIDPEVAKQRETRRRKRLEKDIRQMQKHSKKPKPVDELTLDVKSAKNIGERRRPRTELTLEQIDERAIALKDYTRSRLALQQEDDAWIRGAIESQRKALNELKMLKLELYEAAVQPAAKDLPLIVQGPSLTPPIRNYEAPDGDYIDTTRNWAS | not soluble |
| MEYQFTHSIHGIVAKCSMEHEVFARWLNTEIIGHTQNLHNILAEIEKCRAAFPNHYECVFEGQEYSLYFDCDEVIVKVNNLAMAIDEVIVEEGLQLYDQESVAFCGLEDFERFLQAYHKFSSTYH | not soluble |
| MGSDKIHHHHHHMITTSNITMQFGVKPLFEKVSVKFGEGNRYGLIGANGSGKSTFMKILGGDLEQTAGEVAIENGLRLGKLRQDQFGYEDQRVIDVVMMGHTEMWAAMSERDAIYANLEATEDDYMRAADLEAKFAEYDGYTAEARAGELLMGVGIPVEQHFGPMSEVAPGWKLRVLLAQALFSNPDILLLDEPTNNLDINTIRWLEHVLNERNSTMIIISHDRHFLNSVCTHMADLDYNTIRIYPGNYDDYMIASAQARERQLSSNSKAKERIQELQEFVARFSANKSKARQATSRLKQVDKLKSEMVEVKPSSRQNPFIRFEMDDKFKLHRQAVEVEGLSKAYDNKVLFKDLNLILEAGARLAIIGPNGAGKTSLIKLLAGAFEPAYAEGLTADRGTIKWAEKAQIGYFAQDHEADFDSDATLTEWMREWGQEGDDEQVIRGTLGRLLFGGDEVGKPVRVLSGGEKGRMLYGKLILQKPNVMIMDEPTNHMDMESIESLNMALEKYKGTLIFVSHDRQFVSSLATHVLELDGKGGYDYYTGNYEDYLASKGLE | not soluble |
| MNLMTTITGVVLAGGKARRMGGVDKGLLELNGKPLWQHVADALMTQLSHVVVNANRHQEIYQASGLKVIEDSLADYPGPLAGMLSVMQQEAGEWFLFCPCDTPYIPPDLAARLNHQRKDAPVVWVHDGERDHPTIALVNRAIEPLLLEYLQAGERRVMVFMRLAGGHAVDFSDHKDAFVNVNTPEELARWQEKRSHHHHHH | soluble |
| MGSDKIHHHHHHLNLIWTNLRVPVEEDERQLPLMIARKLKVSQQSISNLRILRRSVDARKKPQLLFSYTLGFSLDIPYKEVNRVLHRVADLKPEPQIMPRPFMKPEKSLKHRPIVVGAGPAGYFAALTLAKGGYAPLVLEQGDDVETRSLKVENFWRTGQLDTESNVQFGEGGAGTFSDGKLTTRIADPRITEVLETFVEQGAPSEILFLAKAHIGTDILKIVTQRLREKIQSLGGEVRFRAKLTGLRHQNGKLVGVEVNHQEVVPAEAVILAIGHSARETYRLLLAQGVHLEQKAFAIGLRIEHPQKLINTSQYGVEFHPKLGPADYQLTYQDTTTGRGAYAFCMCPGGKVVAAASDLERLVTNGMSEYRRDTGIANSALVVTVGKGDFQREHPLAGVEFQEYWEHQAFLAGDRDYKAPAQSVRDFLAKRVTGDFPLPASYTPGIQPVELHRVLPQAVGDVLDRALLSFERKIQGFAGEMGTLTGIETRTSAPVRITRDKMGEALHIQGLFPAGEGAGYAGGIMSAAVDGIRSAEGIMAQYNPAD | not soluble |
| MGNQMSVPQRVEGQENEPEAETYQDNASALNGVPVVVSTHTVQHLEEVDLGISVKTDNVATSSPETTEISAVADANGKNLGKEAKPEAPAAKSRFFLMLSRPVPGRTGDQAADSSLGSVKLDVSSNKAPANKDPSESWTLPVAAGPGQDTDKTPGHAPAQDKALSAARDPTLLPPETGGAGGEAPSKPKDSSFFDKFFKLDKGQEKVPGDSQQEAKRAEHQDKVDEVPGLSGQSDDVPAGKDIVDGKEKEGQELGTADCSVPGDPEGLETAKDDSQAAAIAENNNSIMSFFKTLVSPNKAETKKDPEDTGAEKSPTTSADLKSDKANFTSQETQGAGKNSKGCNPSGHTQSVTTPEPAKEGTKEKSGPTSLPLGKLFWKKVVCESPVEIIKSKEVESALQTVDLNEGDAAPEPTEAKLKREESKPRTSLMAFLRQMSVKGDGGITHSEEINGKDSSCQTSDSTEKTITPPEPEPTGAPQKGKEGSSKDKKSAAEMNKQKSNKQEAKEPAQCTEQATVDTNSLQNGDKLQKRPEKRQQSLGGFFKGLGPKRMLDAQVQTDPVSIGPVGKSK | soluble |
| MGSDKIHHHHHHMVNKNLYTLLVCLLLAGCDLIDYHPYDVRISGETDVNAHNIEQIEAKCKGKTTIRFITMGDSQRWYDETEDFVKEVNKRDDIDFVIHGGDMSDFGLTKEFLWQRDIMNGLKVPYVVLIGNHDCLGTGAETYQAVFGPTNFSFIAGNVKFVCLNTNALEYDYSEPIPNFGFMEQELTDRADEFEKTVVSMHAHPFADVFNDNVAKPFQYYITQYPGLQFCTAAHNHGFDDRILFDDDVHYIVSDCMKSRSYLVFTITPEKYEYELVEY | not soluble |
| MNFLEASWEEREVTAYKAILGDTGLGIFPLSHELFKRMSASGINPRWLTHGVFKSPPNGNRSTWAYITSGMSNPWETNEPEEHSGLGVEFIIETEKEETWAVEVLQMLMAYNLLLAAGQMGDFPLLGDGDRVPLALSDAIRTMMFTQPVSFPHCFSLKSGRVDLLQVVGITPAELQVAKQTSSDKIRTQLISKLGSLVTSKERESVVLEHHHHHH | not soluble |
| SLGMIKNSLFGSVETWPWQVLSKGDKEEVAYEERACEGGKFATVEVTDKPVDEALREAMPKVAKYAGGTNDKGIGMGMTVPISFAVFPNEDGSLQKKLKVWFRIPNQFQSDPPAPSDKSVKIEEREGITVYSMQFGGYAKEADYVAQATRLRAALEGTATYRGDIYFCTGYDPPMKPYGRRNEIWLLKT | soluble |
| DRSVIYPSEYFFLKGGNAFWRFGDSMEAAFQTLPPYTATADKHLILQTSYRASRLLVNFLPFVFLKTNDEALHFKARWDMVSRKPYLEMGYSES | not soluble |
| MASIGRAIVRVPKNVKKGQIFKVQMVIIHPMETGLRKDPKTGKKIPAHYITHVDLYFNGKLVTKINTSPGISKNPYFAIKMKAEEAGTLKIVYEDNKGGKWEKEVKINVA | not soluble |
| MSLMRKNETREFLIEDIEFPAVGVAFYNDKKVYIKGAVPGQKVLARVSKVRREKIEAKLKEIVTNIPGAAQPKCPDFGVCGGCVHQFLPYEKQLEFKEREVLKLFKDAKIEGFEYLGILGSPEKEEYRNKMEYTFGDFVKGGELTLGMHAKDSGFSIVNTDKCNIVDEDFRIILKTVVEYFRKKDLPIYKVMQHVGYLRNLVVRKAKNTGEILIALVTTSQVDFDLTELTEILKSINYLGELKGILHVINDGLADMVRGDKIVTLFGQDYITERILDLKFKMSLFSFFQTNSKGAEKLYSEVLEFLGDVSNKTVFDLYCGTGTIGQLASKKAEKVIGIELIEEAVEAAKENTKLNNISNCSFIAGDVAKVITEIKEKPDTIILDPPRPGVSPNAMKYVIKFNAPEIVYVSCNPKTLVNDLGVLRAYGYEVEKVKIVDMFPGTGHVETVVLLQRKIIEGHHHHHH | soluble |
| MLTSAQTRSLFRNNIFYKYRTAISVCQSIGRSIRSEEDWAYTFTLDSRFPKYISDHRNLINESVSFYEKRIPDFPSEKSIQKLKNEIFRNLPFLEHHHHHH | not soluble |
| MGLKIGDIVSRKSYGSDILFKVVDIKYEKGRKIVVLKGICYRLEADAPETDLIVQPDSYVREYNARVNRAINEKLKSLNESLMREKTKKKFFRDAAKENNENFPRPGKVLHVDGDSDYLDTCMEEYRKLGMDAVGVYVKEKEQPLKIYNLLKEHKPDILVLTGHDGVIKSEKGYSDITNYRNSKYFVEAVREARRFDGNLDSLVIFAGACQSMFKKIIEAGANFASSPYRVLIHALDPVMVCEKIAFTSINQVISPQDVISKTITGVKGIGGIETRGKYRDGFPREPYNIK | soluble |
| MADEERLKEFKEANKIVFDPNTRQVWENQNRDGTKPATTFQSEEDIKRAAPESEKDTSATSGIVPTLQNIVATVTLGCRLDLKTVALHARNAEYNPKRFAAVIMRIREPKTTALIFASGKMVVTGAKSEDDSKLASRKYARIIQKIGFAAKFTDFKIQNIVGSCDVKFPIRLEGLAFSHGTFSSYEPELFPGLIYRMVKPKIVLLIFVSGKIVLTGAKQREEIYQAFEAIYPVLSEFRKM | soluble |
| MAHHHHHHMRKPGRKIVYVPDDDAQFLGSMSDPLPPRVSDLLRLKSPSMSDNGHAETGSNGTTGSPGYESIGNELLVSYGGYTLADGSGTLHPPTTRRNGAQLYKSLRKCCRFLRASLSDSMAPKLETDSESSWSCPSFCSSDPTSSSEYSDVSPQRGRRRAAKQANEQTGYNAMIVVQLRRLLHKRGLSTCGIKKVLVARLEQSDMQLSKSKEEGEEQKEQEELDGSAGECTKTERSEDVCSASCGNVSGRVTAAGPTSMLSSLLSFGSRLFRASTGSVSEGGHVSGLKRRRSV | not soluble |
| MLRRGLSRPEPRLLSKRYLSSATGGGSAGTTEGGSSETTPLRPRPNALTDEIIRVDHAGELGADRIYAGQMAILGNGPLGKTIGHMWEQEKEHRKQFEQLIQQHRVRPTIMTPIWNVAGFVLGAGTALMGEKAAMACTVAVETVIVEHYNDQLRQIMEAPNPDKELLATITKFRDEEQEHHDTGIDHGAEQAPFYQAMTEVIKFGCKTAIAISKKILEHHHHHH | not soluble |
| CPVNWVEHERSCYWFSRSGKAWADADNYCRLEDAHLVVVTSWEEQKFVQHHIGPVNTWMGLHDQNGPWKWVDGTDYETGFKNWRPEQPDDWYGHGLGGGEDCAHFTDDGRWNDDVCQRPYRWVCETEL | soluble |
